Assay: soluble on expression in E. coli; label from the status in PepcDB or PDB records

Sequence | soluble on expression in E. coli
MGSDKIHHHHHHMSMPSIDIEPTPRTLRTLALFDLDHTLLDVDSDYLWGEYIVKHNLVDEAQYRTANQKFYNDYIEGRLDATEYNEFVAQFLSSLPMGRLHELREDYIKSEIEPHIRPKAMEVLCQHVEEGHDVVIISATNDFVVSAIAKRFGIEDGNVLSTPLEIKDKRYTGKLTDKPNFKEGKIYHLDKWIGKQQLAGIHFNKTYAYSDSKNDIPLLEWADVAICVSPDAALHAHALSHRWAVEDWSI | not soluble
MGSDKIHHHHHHMYVAVKGGEQAILNTHKLISETRRGDPEIAELTLPQISEQLGLAVDRVMAEGSVYDRQLAALALKQAQGDAMEAIFLLRAYRTTLPRIAVSEPIDTSRMAIRRRISATFKDLPGGQVLGPTYDYTHRLLDFALTAEGLERVRAVPAAEPLDQSVPRVVDLLDDEGVIQEENDDDQEEVFDLTRQPKSFPAGRDQRLQNLARADEGFLLGLAYSTTRGYGFNHPFVGELRLGEVTVEIVPEELGFPIVVAEVTVTECQMINSFRGSAEQPPQFTRGYGLTFGHNEGKAMSMSLVDRAMRARELGEDVRYPAQDEEFVLSHTDNVEANGLVTHYKLPHYVDFQAELQLVRQLRAEYEAARAAAQTREAAE | not soluble
PKALIVYGSTTGNTEYTAETIARELADAGYEVDSRDAASVEAGGLFEGFDLVLLGCSTWNDDSIELQDDFIPLFDSLEETGAQGRKVACFGCGDSSYEYFCGAVDAIEEKLKNLGAEIVQDGLRIDGDPRAARDDIVGWAHDVRGAI | soluble
MADSLDRLYQAVLAARDLDPATSRTARLFQRGSGKMAKKLAEEAIEVVIDAVNGNREAVIRESADLLYNLTVLWASAGVRPEDVWAEMRRRENLLGIAEKLPKSRIGKPAAPHATRRPVIPQEARAVRKHR | not soluble
MANDVMNRNYDFFDPMNFFNEVGNLGRDMFSGDSSMKTDVVEHDKDYVVTAELPGFKKDDIHVDYHDETLRISGKTEVNQSAKDDDGRILRQERRSQNVARSFYLPGIDLKNVKATYADGILTLTLPKQTEVDGSHEISIDLEHHHHHH | soluble
MYLMSSIPPLIDLLPHDTPLALVDELIEVNDLSVHCQVTIGENNVFFDHETKTVPAWVGIEFMAQSIAGWSGYHAWKKGNKSPIGFLLGSRKYQAECSEFQQGDTLDIFAEQVLENNGMAVFSCYIEHKGQQLASSQLNVFVPTEEKLEELLTPKQLEHHHHHH | soluble
KDTIALVVSTLNNPFFVSLKDGAQKEADKLGYNLVVLDSQNNPAKELANVQDLTVRGTKILLINPTRSDAVGNAVKMANQANIPVITLDRQATKGEVVSHIASDNVLGGKIAGDYIAKKAGEGAKVIELQGIAGTSAARERGEGFQQAVAAHKFNVLASQPADFDRIKGLNVMQNLLTAHPDVQAVFAQNDEMALGALRALQTAGKSDVMVVGFDGTPDGEKAVNDGKLAATIAQLPDQIGAKGVETADKVLKGEKVQAKYPVDLKLVVKQ | soluble
MENTEKLKNSKEVIAYIAECFPNCFTLEGEAKPLKIGIFQDLADRLNDDPKVSKTQLRAALRQYTSSWRYLHGVKPGATRVDLDGNPCGELEEQHVEHAQAALAESKARVEARRKEQVKKVREEAKANKPKAKKPQQARRPQNAPKVEKKPVETRALAASELNVGNQVNVNMGKGNMAATIVEVNKEDVRVQLANGLQMVVKAEHLRA | not soluble
MEMYFKRMKDEWTGLVEQADPPIRAKAAEIAVAHAHYLSIEFYRIVRIDPHAEEFLSNEQVERQLKSAMERWIINVLSAQVDDVERLIQIQHTVAEVHARIGIPVEIVEMGFRVLKKILYPVIFSSDYSAAEKLQVYHFSINSIDIAMEVMTRAFTFSDSSASKELEHHHHHH | soluble
MVAADIGAGLADALTAPLDHKDKGLQSLTLDQSVRKNEKLKLAAQGAEKTYGNGDSLNTGKLKNDKVSRFDFIRQIEVDGQLITLESGEFQVYKQSHSALTAFQTEQIQDSEHSGKMVAKRQFRIGDIAGEHTSFDKLPEGGRATYRGTAFGSDDAGGKLTYTIDFAAKQGNGKIEHLKSPELNVDLAAADIKPDGKRHAVISGSVLYNQAEKGSYSLGIFGGKAQEVAGSAEVKTVNGIRHIGLAAKQHHHHHH | soluble
MTEKKERIDVHAYLAEFDDIPGTRVFTAQRARKGYNLNQFAMSLMKAENRERFKADESAYLDEWNLTPAAKAAVLARDYNAMIDEGGNVYFLSKLFSTDGKSFQFAAGSMTGMTQEEYAQMMIDGGRSPAGVRSIKGGY | soluble
NLHGMEQIEFQVSAHRDLPLRPLNKVASGGELSRISLAIQVITSKAGTVPTLIFDEVDTGIGGRIAAIVGKLLQQLGKTRQVMSITHLPQVAARGDHHWRVSKTSETED | not soluble
MPDAVYVFTPKGHIRALPRGATALDFAYAVHSDLGNQCVAVKINNELLPLRTELKSGDIVEVVTAPYSKLEHHHHHH | not soluble
MSLKTVVVIGGGITGLSTMFYLEKLKKDYNIDLNLILIEKEEYLGGKIHSVEEKDFIMESGADSIVARNEHVMPLVKDLNLEDEMVYNETGISYIYSENMLHPIPSDTIFGIPMSVQSLFSSTLVSTKGKIVALKDFITKNKEFTKDTSLALFLESFLGKELVERQIAPVLSGVYSGKLNELTMASTLPYLLDYKNKYGSIIKGFEENKKQFQSAGNKKFVSFKGGLSTIINRLEEVLTETVVKKGVITTAVSKQEDRYEISFANHETIQADYVVLAAPHDIAQTLLQSNELNEQFNTFKNSSLISIYLGFDILDEQLPADGTGFIVTENSDLHCDACTWTSRKWKHTSGKQKLLVRMFYKSTNPVYETIKNYSEEELVRVALYDIEKSLGIKGEPEVVEVTNWKDLMPKYHLEHNQAVQALQEKMTNLYPNVYLAGASYYGVGIGACIGNGKNIANEIMDTLNKEGHHHHHH | soluble
MMIEGLEKMLAKGVDNALLRFGLGKGYLDAGDAERAAEHLQRCVEQDPKYSAGWKLLGKARQAAGDLAGARQAWEQGLATAATHGDKQAEKEMTVFLRKLDRART | not soluble
MGHHHHHHSHMANSAGSMANSAGSLPTTTIGSFPQSREVRKYRADWKNKRITDEAYETFLKNEIARWIKIQEDIGLDVLVHGEFERNDMVEFFGEKLQGFLVTKFGWVQSYGSRAVKPPIIYGDVKWTAPLTVDETVYAQSLTDKPVKGMLTGPVTILNWSFERVDLPRKVVQDQIALAINEEVLALEAAGIKVIQVDEPALREGLPLRSEYHEQYLKDAVLSFKLATSSVRDETQIHTHMCYSQFGQIIHAIHDLDADVISIETSRSHGDLIKDFEDINYDLGIGLGVYDIHSPRIPTKEEITTAINRSLQQIDRSLFWVNPDCGLKTRKEEEVKDALTVLVNAVKA | not soluble
MGSDKIHHHHHHMIKLFIVACGYIIYKLGRYCKENEYYMASLLMLQYHKSLSAERQQILYTNFTYYKKLSEKKKLEFEKRVQHFLTNKSFIASDGFEITEQMKVMIAATAVQILFCRKAYYLSSFDFIELFEEVPVHVEVMRKKRIIQISWNEFKKGFDSLIDGYNPGLKIMAMALDLEHKFGEKSLFSQQTYKAFQKIYKQEAEKYILSGKSKYDHYNKVDRTEYFAVAVEYFFERPEHFNVNQPAMYLALSKLLRQDPLGMYTYKEKVFE | not soluble
MGSDKIHHHHHHMAAVALDQYLASVLKSSASDKNEIKLEAGNPDFDLFTIYLENHNTGIHRYRMDVSTILYVAKGTVTIKSAEKVINMRTGNVLLLTEGCKYEVSGQNDDTVLAKLKFAPGFEYRKYFNDFSYKGNRENKIIEQISDSLENEHVLWLKNNQITSASQVMQHIIGGYLDDELFAKALIQAELTAMLIISIRTQRMATPTNLDKTKFEKKSLDNYIDNHFADISLADAAKYFGFNPNYFSNMVKAKTGKSFVDHVGERRMQEARELLAQPDISLKEIISRVGYSSKSFFYKKFNQYYNMTPAAMRKELFRQANINLR | not soluble
MRWLLVVAGLLAAGGLAQTPPPPAAQTAEQNPLRLGVQLYALGRYDAALTLFERALKENPQDPEALYWLARTQLKLGLVNPALENGKTLVARTPRYLGGYMVLSEAYVALYRQAEDRERGKGYLEQALSVLKDAERVNPRYAPLHLQRGLVYALLGERDKAEASLKQALALEDTPEIRSALAELYLSMGRLDEALAQYAKALEQAPKDLDLRVRYASALLLKGKAEEAARVLEEGHRIKPLNAEGWYTLGQAYLALGRTKEAGVALENAVALAPLRFPAAYYYLGQVYLALGDYPKAKSRLTVAVRLEPKRAEYRYSLCLANEKLGDKEGARYQCQEALKLRPDYKEAEEVLKRL | soluble
MFDRLLSQFGRKRVASESVATQQQLTDRTNVYTVKPQDPLLDKKQKMTPVQKVCLKCLAGESGHITHVLSSLSN | not soluble
MVKIVELQEKESLYYCTKDEDHFFDRKAFGLKGEKVQKIAVAFANADGGEILVGIADDKDEVIPEKRWQGQESTEAYNSVIQALSELVPSVDFRFDFLTRVNESRNYVLRVKINKGLSVHETAKKKIFLRQGAQSLPVTAPIKILELTHAKGIISEEDSLVNSASIDELDSSIELTKFLSELPIRAPDPITFLLKEKLVDSETWAPTVAAVLLFAENPSAELPKQCAIRIVRYDTDGEDIDRDALTEDNIAIEGSLYQQIQDAYSKIELFLSKNKVWKVEGLVETKYPKETIWEILVNTVIHRDYAISDNVLVSIFNNRIEFKSPGRFTGFVTAENILENRCSRNSKIVRILSKYKDSPNKDLGEGMNTAFQRMRSMGLRDPEILEDGNYVKIILRHSSNDDPETLIMKFIESNGEINNRQARDLTGIDRTEKVTYQFSKLRDKGLIQRKDSSTGLKSSWIAVLEHHHHHH | not soluble
MGRSATPEGDPARTMELLWGGGSTPISRPRNGKPGLTLDRIVETAVSVADAEGLDAVSMRRLASELGAGAMSLYTHVPGKTELVEVMLDRALSTLEPADDADEGWRERLAAAAHDYFHLLCAHPWMLGVVALSRPVLGPGGMAKYERELRAVEGLGLSDLDMDSVVTLLDSFVAGAARAAVDAAALAAQGEADSEWWQRVAPHFEKVFDPDRFPLAARVGASAGEHHDAAYVPAHAFEFGLTRLLDGVGALIVDGGTGGE | not soluble
